Reference: article PMC9325726
Where no end group is shown, it is not given here. The star is where a group is joined. αGalNAc = CC(=O)N[C@@H]1[C@@H](O)[C@@H](O)[C@@H](CO)O[C@@H]1*

Target: T1, wild-type AM0627^A21-E506 (Akkermansia muciniphila) (UniProt B2UPI7)
T1 sequence: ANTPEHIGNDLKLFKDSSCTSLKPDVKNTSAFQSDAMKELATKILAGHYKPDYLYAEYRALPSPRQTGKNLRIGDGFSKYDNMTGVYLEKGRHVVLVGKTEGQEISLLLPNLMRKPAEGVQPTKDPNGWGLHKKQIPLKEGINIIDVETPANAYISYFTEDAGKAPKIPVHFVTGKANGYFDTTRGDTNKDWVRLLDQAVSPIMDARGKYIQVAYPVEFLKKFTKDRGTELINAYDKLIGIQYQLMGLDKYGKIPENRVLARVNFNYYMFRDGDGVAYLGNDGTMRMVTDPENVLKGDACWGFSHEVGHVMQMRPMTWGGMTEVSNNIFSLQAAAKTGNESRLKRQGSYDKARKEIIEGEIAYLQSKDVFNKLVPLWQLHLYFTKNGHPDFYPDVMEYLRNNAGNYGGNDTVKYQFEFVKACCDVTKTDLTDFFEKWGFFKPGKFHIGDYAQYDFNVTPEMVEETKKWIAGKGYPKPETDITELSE

cleavage of P2 (500 μM) by 0.4 μM enzyme at 37 °C, MALDI-TOF time course, printed for 5 and 15 min: 35%
specific activity with P2 (500 μM), from the MALDI-TOF time course: 1.2 U/mg
Binder: TEAQT(αGalNAc)T(αGalNAc)PPPA-NH2 [P2, bis-Tn glycopeptide]
